{"source": "patent US20240226357A1", "about": "“Sanitization Method for Affinity Chromatography Matrices” (priority 2015, published 2024)", "experiment": "LC chromatograms (LC-MS) of ligands before and after incubation in 0.1 M peracetic acid", "type": "physicochemical", "conditions": "1 h incubation in 0.1 M peracetic acid, UV 280 nm", "method": "The kinetics was measured by Surface Plasmon Resonance on a Biacore™ instrument. […] 1 ml rPrL and KappaSelect ligand were diluted to 10 mg/ml. • 3. Reference sample (0 h) was withdrawn, 100 μl and buffer exchanged to 50 mM Ammonium Bicarbonate. • 4. 10% 1 M PAA was added and the incubations started. • 5. Samples were withdrawn after 1, 2, 4, 8, 16 and 24 h, 100 μl and buffer exchanged to 50 mM Ammonium Bicarbonate to stop the oxidation reaction. • 6. The concentrations were measured in all samples by measuring the UV absorbance at 276 nm. • 7. The samples were then analyzed on LC-MS and Biacore.", "data": [{"molecule": "rPrL: recombinant Protein L (protein) AVENKEETPETPETDSEEEVTIKANLIFANGSTQTAEFKGTFEKATSEAYAYADTLKKDNGEYTVDVADKGYTLNIKFAGKEKTPEEPKEEVTIKANLIYADGKTQTAEFKGTFEEATAEAYRYADALKKDNGEYTVDVADKGYTLNIKFAGKEKTPEEPKEEVTIKANLIYADGKTQTAEFKGTFEEATAEAYRYADLLAKENGKYTVDVADKGYTLNIKFAGKEKTPEEPKEEVTIKANLIYADGKTQTAEFKGTFAEATAEAYRYADLLAKENGKYTADLEDGGYTINIRFAGKKVDEKPEE", "values": [{"measurement": "LC chromatograms before and after SIP (degradation)", "result": "no signs of degradation"}]}]}
